Assays:
CD8+ T-cells [1] = experiment: Intracellular cytokine staining after re-stimulation with mutant or wild-type HERC1 peptide; format: cell-based, human; conditions: PBLs from day 63 and 297 expanded with mutant peptide, re-stimulated
Protocol: HERC1 P>S mutant and wild type peptides of 9 amino acids in length (Mutant: […] (SEQ ID NO: 344), Wild type: […] (SEQ ID NO: 5925)) were synthesized (GenScript Piscataway, N.J.). 1.5×10^6 patient PBMCs were cultured with 1.5×10^6 autologous PBMCs pulsed with HERC1 P>S mutant peptide in RPMI media containing 10% pooled human serum (PHS), 10 mM HEPES, 2 mM L Glutamine, and 50 μM β-mercaptoethanol supplemented with IL-15 (10 ng/ml) and IL-2 (10 IU/ml), using methods previously described (59). […] Cells were then treated with 1× Brefeldin A and monensin (BioLegend) for 4 hours, and subsequently stained with 1 μL Alexa Fluor 405-CD3 (Invitrogen), 3 μL APC-H7-CD8 (BD Bioscience), and 1 μL ECD-CD4 (Beckman Coulter). Upon subsequent washing and permeabilization, the cells were stained with the following antibodies to intracellular cytokines: 3 μL Alexa Fluor 647-IFN-γ (Biolegend), 3 μL PE-MIP-1β, and 1 μL PE-Cy7-TNF-α (BD Pharmingen). Data were acquired by flow cytometry (using CYAN flow cytometer, Summit software, Dako Cytomation California Inc., Carpinteria, Calif.). Analysis was done by FlowJo version 10.1, TreeStar, Inc. CD3+ single cell lymphocytes were gated for analysis (SS vs. FS [low, mid], FS vs. Pulse Width [all, low], and CD3 vs. “dump” channel [high, low]).

CD8+ T-cells [2] = experiment: MHC multimer screening of neoantigen-specific CD8+ T-cells in serially collected peripheral blood lymphocytes of a pembrolizumab responder; format: cell-based, human
Protocol: HLA-A restricted candidate neoantigens were synthesized in-house (Netherlands Cancer Institute) and HLA-multimers containing these peptides were produced by micro-scale parallel UV-induced peptide exchange reactions as previously described (26, 58). Briefly, peptide-MHC complexes loaded with UV-sensitive peptide were subjected to 366-nm UV light (CAMAG) for one hour at 4° C. in the presence of candidate neoantigen peptide in a 384-well plate. pMHC multimers were generated using a total of 11 different fluorescent streptavidin (SA) conjugates (Invitrogen). For each pMHC monomer, conjugation was performed with two of these fluorochromes. NaN3 (0.02% w/v) and an excess of D-biotin (26.4 mM, Sigma) were added to block residual binding sites. For T cell staining an combinatorial encoding strategy was employed to be able to analyze for reactivity against up to 47 different peptides in parallel (27). The PBMC samples were thawed, treated with DNAse for 1 h and stained with pMHC multimer panels for 15 min at 37 C. Subsequently, anti-CD8-AF700 (Invitrogen), anti-CD4-FITC (Invitrogen), anti-CD14-FITC (Invitrogen), anti-CD16-FITC (Invitrogen), anti-CD19-FITC (Invitrogen), and LIVE/DEAD Fixable IR Dead Cell Stain Kit (Invitrogen) were added for additional 20 min on ice. Data acquisition was performed on an LSR II flow cytometer (Becton Dickinson) with FACSDiva 6 software. Cutoff values for the definition of positive responses were ≥0.005% of total CD8+ cells and ≥10 events. For immunophenotypical analysis, day 44 PMLs were stained with HERC1 P3278S MHC multimers in two colors (qdot 625 (Invitrogen) and PerCPeFluor710 (ebioscience)) plus anti-CD45RA Ab (Invitrogen), anti-CCR7 Ab (BD Bioscience), anti-HLA-DR Ab (BD Bioscience), and anti-LAG-3 Ab (R&D systems). The immunophenotype of HERC1 P3278S reactive and bulk CD8+ T-cells were analyzed. Data were acquired using an LSR II flow cytometer (Becton Dickson) with FASCDiva 6 software.

[3] = tested on: stage IV non-small cell lung cancer (NSCLC) patients; conditions: 10 mg/kg every 2-3 weeks vs 2 mg/kg every 3 weeks; reference (6); cited from earlier work
[4] = cited from earlier work
[5] = approximately 2000 patients; cited from earlier work
[6] = tested on: stage IV non-small cell lung cancer (NSCLC) patients; experiment: Clinical efficacy of pembrolizumab in NSCLC patients (protocol NCT01295827), by tumor genomic subgroup; format: in vivo, human; conditions: for ORR: all 34
Protocol: All patients had stage IV non-small cell lung cancer (NSCLC) and were treated at Memorial Sloan Kettering Cancer Center (n=29) or the University of California at Los Angeles (n=5) on protocol NCT01295827 (FIG. 17). All patients initiated therapy in 2012-2013 and were treated at 10 mg/kg every 2-3 weeks, except for 5 patients treated at 2 mg/kg every 3 weeks. The overall response rate and progression-free survival are reported to be similar across dose and schedules (6). All patients had consented to Institutional Review Board-approved protocols permitting tissue collection and sequencing. PD-L1 expression was assessed prospectively by immunohistochemistry using a previously validated murine anti-human anti-PD-L1 antibody (clone 22C3, Merck & Co., Inc.). Membranous expression of PD-L1 on tumor cells and infiltrating immune cells were scored. 31 (91%) scored at least 1% positive for PD-L1 expression; 2 patients were PD-L1 negative; and 1 was unknown. Smoking status was evaluated using previously completed self-reported smoking questionnaires executed as standard of care at MSKCC or review of medical records at UCLA.
Per protocol, CT scans were performed every nine weeks. Partial and complete responses were confirmed by a repeat imaging occurring at least 4 weeks after the initial identification of response; unconfirmed responses were considered stable or progressive disease dependent on results of the second CT scan. Durable clinical benefit (DCB) was defined as stable disease or partial response lasting longer than 6 months (week 27, the time of third protocol-scheduled response assessment). No durable benefit (NDB) was defined as progression of disease ≤6 months of beginning therapy. Patients who were still ongoing study therapy at the time of the data lock (Oct. 10, 2014) but who had not yet reached 6 months of follow up were considered “Not reached” (NR). These patients were not included in the analysis of DCB/NDB, but were included in assessments of objective response and progression-free survival. For patients with ongoing response to study therapy, progression free survival was censored at the date of the most recent imaging evaluation. For alive patients, overall survival was censored at the date of last known contact.
Mann-Whitney test was used to compare mutation burdens and differences in the frequency of nucleotide changes. The Log-Rank and Mantel-Haenszel tests were used to compare Kaplan-Meier survival curves. The proportion of objective responders/non-responders or DCB/NDB were compared using Fisher's Exact Test. The receiver operator characteristic (ROC) curve was generated by plotting the proportion of all DCB patients with mutation burden above any given cut point (sensitivity) against the proportion of the NDB patients that would also exceed the same cut point (1-specificity). The area under the curve and exact 95% confidence intervals are reported. Correlations between nonsynonymous mutation burden and neoantigen burden, neoantigen burden and best overall response, and frequency of neoantigen burden/nonsynonymous mutation and best overall response were calculated using Spearman correlation formula. Statistical analyses were performed using GraphPad Prism v.6 (Graphpad Prism Software, San Diego, Calif.).

[7] = 411 patients, Trial 1, all grades
[8] = discovery cohort, high nonsynonymous burden
[9] = discovery cohort, low nonsynonymous burden
[10] = validation cohort, nonsynonymous mutation burden above the median
[11] = validation cohort, nonsynonymous mutation burden below the median

Substance: ASNAPSAAK (listed as Homo sapiens) [synthesized 9 amino acid wild type HERC1 peptide]
- polyfunctional CD8+ T-cells (IFNγ, CD107a, MIP113, TNFα production) in response to peptide (CD8+ T-cells [1]): not

Substance: ASNASSAAK (listed as Homo sapiens) [synthesized 9 amino acid mutant HERC1 P>S neoantigen peptide]
- polyfunctional CD8+ T-cells (IFNγ, CD107a, MIP113, TNFα production) in response to peptide (CD8+ T-cells [1]): detected
- HERC1 P3278S neoantigen-specific CD8+ T-cell response (MHC multimer+) (CD8+ T-cells [2]; Day 44): 0.044 % of Cd8+ T-cells
- HERC1 P3278S neoantigen-specific CD8+ T-cell response (MHC multimer+) (CD8+ T-cells [2]; at start of therapy, level of detection): < 0.005%
- HERC1 P3278S neoantigen-specific CD8+ T-cell response (MHC multimer+) (CD8+ T-cells [2]; subsequent months as tumor regression plateaued): just above background
- HERC1 P3278S neoantigen-specific CD8+ T-cell response (MHC multimer+) (CD8+ T-cells [2]; within 3 weeks post therapy initiation): 0.040 % of CD8+ T-cells

Substance: pembrolizumab
- overall response rate and progression-free survival across dose and schedules [3]: similar
- Pneumonitis, patients ([4]; 411 melanoma patients, Trial 1, all grades): 2.9%
- Colitis (including microscopic colitis), patients [4, 7]: 1%
- Hepatitis (including autoimmune hepatitis), patients [4, 7]: 0.5%
- Hyperthyroidism, patients [4, 7]: 1.2%
- Hypophysitis, patients [4, 7]: 0.5%
- Hypothyroidism, patients [4, 7]: 8.3%
- Colitis Grade 2, patients ([4]; Trial 1): 0.2%
- Colitis Grade 3, patients ([4]; Trial 1): 0.5%
- Hepatitis Grade 4, patients ([4]; Trial 1): 0.2%
- Hyperthyroidism Grade 2, patients ([4]; Trial 1): 0.5%
- Hyperthyroidism Grade 3, patients ([4]; Trial 1): 0.2%
- Hypophysitis Grade 2, patients ([4]; Trial 1): 0.2%
- Hypophysitis Grade 4, patients ([4]; Trial 1): 0.2%
- Hypothyroidism Grade 3, patients ([4]; Trial 1): 0.2%
- Pneumonitis Grade 2, patients ([4]; Trial 1): 1.9%
- Pneumonitis Grade 3, patients ([4]; Trial 1): 0.2%
- discontinuation of KEYTRUDA due to pneumonitis, patients ([4]; Trial 1): 0.7%
- median duration of colitis ([4]; Trial 1): 2.6 months
- median duration of hyperthyroidism ([4]; Trial 1): 2.8 months
- median duration of pneumonitis ([4]; Trial 1): 4.9 months
- median time to development of pneumonitis ([4]; Trial 1): 5 months
- other immune-mediated adverse reactions, patients: exfoliative dermatitis, uveitis, arthritis, myositis, pancreatitis, hemolytic anemia, partial seizures, adrenal insufficiency ([4]; Trial 1): less than 1%
- patients who received corticosteroids or discontinued KEYTRUDA for management of hypothyroidism ([4]; Trial 1): No patient
- permanent discontinuation of KEYTRUDA due to colitis, patients ([4]; Trial 1): 0.2%
- permanent discontinuation of KEYTRUDA due to hyperthyroidism, patients ([4]; Trial 1): 0.2%
- Nephritis, patients ([4]; all grades): 0.7%
- duration of hepatitis ([4]; case of Grade 4 hepatitis): 1.1 months
- Grade 2 autoimmune nephritis, patients ([4]; human, in vivo): 0.2%
- duration of autoimmune nephritis ([4]; human, in vivo): 3.2 months
- most common adverse reactions, patients: fatigue, cough, nausea, pruritus, rash, decreased appetite, constipation, arthralgia, diarrhea ([4]; human, in vivo): > 20%
- patients who fully recovered renal function ([4]; nephritis, with high-dose corticosteroids): All three
- interstitial nephritis with renal failure, patients ([4]; one Grade 3 and one Grade 4): 0.5%
- pneumonitis completely resolved ([4]; patients with Grade 2-3 pneumonitis): seven of the nine
- complete resolution of colitis ([4]; patients with colitis): All four
- complete resolution of hepatitis ([4]; patients with hepatitis): Both
- complete resolution of hyperthyroidism ([4]; patients with hyperthyroidism): All five
- additional immune-mediated adverse reactions, patients: myasthenic syndrome, optic neuritis, rhabdomyolysis [5]: less than 1%
- median PFS ([6]; TH tumors): not reached
- rate of DCB ([6]; TH tumors): 77%
- median PFS ([6]; TL tumors): 3.5
- rate of DCB ([6]; TL tumors): 22%
- ORR ([6]; transversion-high (TH, smoking signature) tumors): 56%
- ORR ([6]; transversion-low (TL) tumors): 17%
- confirmed objective response rate (ORR) [6, 8]: 63%
- median PFS [6, 8]: 14.5 months
- rate of durable clinical benefit (DCB) ([6]; discovery cohort, high nonsynonymous burden (above median of cohort)): Seventy-three
- rate of durable clinical benefit (DCB) ([6]; discovery cohort, low mutation burden): 13%
- confirmed objective response rate (ORR) [6, 9]: 0%
- median PFS [6, 9]: 3.7 months
- rate of DCB ([6]; high nonsynonymous mutation burden (>200) and some PD-L1 expression (weak/strong)): 91%
- rate of DCB ([6]; low mutation burden and some degree of PD-L1 expression): 10%
- decrease in tumor burden ([6]; one patient (Study ID #9) with exceptional response): 95%
- duration of partial response ([6]; one tumor with very low burden (56 nonsynonymous mutations)): 8 months
- median PFS ([6]; overall set, high neoantigen burden): 14.5 months
- median PFS ([6]; overall set, low neoantigen burden): 3.5 months
- rate of DCB ([6]; self-reported ever smokers): 48%
- rate of DCB ([6]; self-reported never-smokers): 33%
- tumors with no durable benefit (NDB) ([6]; tumors with ≥178 nonsynonymous mutations, both cohorts): 5 of 18
- median PFS [6, 10]: not reached
- rate of DCB [6, 10]: 83%
- median PFS [6, 11]: 3.4 months
- rate of DCB [6, 11]: 22%
- rate of durable benefit ([6]; validation cohort, tumors harboring ≥178 mutations): 75%
- rate of durable benefit ([6]; validation cohort, tumors with <178 mutations): 14%
- rate of DCB ([6]; weak PD-L1 expression, high nonsynonymous mutation burden): 75%
- rate of DCB ([6]; weak PD-L1 expression, low mutation burden): 11%
